Measured values as given in the supplement of paper PMC12042874.
± gives the uncertainty stated by the source.

Assay: amyloid nucleation score (Sup35N fusion, yeast selection) (log enrichment); library NNK3; higher = more nucleation; inactive = no reads after selection
In short: (§1)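 DiMSum was used to calculate nucleation scores as log enrichment of output over input reads, centred on the mode score of non-aggregating sequences. Sequences with fewer than 100 input reads were not scored. Input and output came from Illumina sequencing of plasmid inserts in psi-negative yeast expressing peptides of 20 random codons fused to Sup35N, induced 24 hours with 100 μM copper sulfate and then grown 7 days at 30°C on medium lacking adenine and uracil.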

Substance	amyloid nucleation score
TRNLPTN	inactive
CFLGVSNMHIGWFGVR	0.838 ± 0.12
RRYHHFRRECWLVERRIVVF	inactive
YSHWMVRAA	-0.145 ± 0.81
TQHTTYTPLPHTELRLPYPQ	inactive
ARRNYHRAINFGGSCAIINK	inactive
NRVED	inactive
SKDNWSRSTYTGACLR	inactive
MCSIIRCRFNMFCLMYVNSV	0.584 ± 0.13
HFLMFMRIIWVLRCPQVESP	inactive
HYYINNTWMFKVYNRLLKRR	2.51 ± 0.057

Assay: amyloid nucleation score (Sup35N fusion, yeast selection) (log enrichment); library NNK2; higher = more nucleation; inactive = no reads after selection
In short: as §1

Substance	amyloid nucleation score
LGHFSFD	inactive
QNIKIW	-1.02 ± 0.55
YSMICGLHCSVLFRGNSEGT	4.782 ± 0.039
YVTFMKGIGLSVFSADIQ	1.83 ± 0.2
AGMHLRVWHSDTHHWLLLNR	3.76 ± 0.074
MISRCDWFWSKLKTSL	2.29 ± 0.06
YCFEADVARMIQVFLVFCAS	0.259 ± 0.25
TGAIRGGSVQRVHSLINPRM	-0.414 ± 0.55
EYLTNVMVRGDYFGWDHAIA	-0.949 ± 0.63
TCVKASNRG	-0.608 ± 0.55
QAPLWENSVSVPRLWWNSLS	-0.342 ± 1.1
KIVCDPGCIFMPFLCVCLLW	6.07 ± 0.082
FMMHRVSTRFASKNAS	-0.072 ± 1.1
MDPYYRKICSCDVGVNYRFL	inactive
FDSFPSS	0.529 ± 0.2
MFSRIWPSSDL	-0.324 ± 1.1
FWHLYPQCQDWSDLQN	inactive
VETMY	1.24 ± 0.43
YDSDFFFHNLGDEPASVGFR	inactive
ASDRWMVYLIHVTSCYVLRV	-0.062 ± 0.41

Substance	amyloid nucleation score
SIFSIFWYV	-0.744 ± 0.5
SARRGCYWEAYCATCLKGWM	-1.03 ± 0.76
CKKLMLILEFWMCMLSLNIA	3.58 ± 0.072
DNMDFMMCKINSGLNLTLSS	-2.33 ± 0.62
TVIAEPIRDEQCTIYHRCGV	0.554 ± 0.38
INRPYNIVGRRSSPSHIVTF	inactive
RWICWAMCSYLRRRKKP	0.527 ± 0.65
FNFGNDGYSFNIILWYQRYI	6.61 ± 0.063
AVIMALNIGWRRRDSGWDGV	5.9 ± 0.083
VISYMFRSTGVFNT	2.73 ± 0.19
NREFCFFVSDVKIPYTPCVP	-0.609 ± 0.32
NWIQRQVL	inactive
SHLCQLLDDAGLTEQNNSSG	0.234 ± 0.57
NYGGPMVNDAFVCTLAGPV	inactive
ELKVMGYMCPL	0.801 ± 0.82
NCLSM	3.36 ± 0.081
FVSYED	-0.793 ± 1.1
ETRGNRPF	0.88 ± 0.33
IALGLNSYGK	-1.74 ± 0.78
NLFKDTISSLHNGIETIAPF	-0.82 ± 0.61

Substance	amyloid nucleation score
YIPKLLRCGRGCHYILSYAD	0.065 ± 0.62
GQNTDVTCQRYERTM	0.329 ± 0.62
SLEVCLIALDYGIQFLSTSA	0.099 ± 0.18
NDVNDLMGCTNQRGMYPQII	inactive
IYWSLMDWLEV	1.22 ± 0.44
LSRQFRRYLMLSLFYFVLLP	-1.21 ± 0.38
RVIARLLMLWFHPPCSSTKR	6.203 ± 0.058
LNYTRCQGSTKVDHSLGNLM	-0.482 ± 0.31
TWQVMRRYLENPDGSL	-1.03 ± 0.62
TDECWIGYFNSSAI	-0.053 ± 1
VLAARVTTYHLCVSEDVVTL	2.9 ± 0.15
FLILAHLGIKNYNWV	3.885 ± 0.037
SFGWDYVDPQLKNTCTHCRV	-0.795 ± 0.48
RLSAHPVAAVLWG	1.49 ± 0.36
ICPRRS	0.474 ± 0.34
WILGKFTDKFRSSRHRRNRA	0.787 ± 0.25
ATGMIPVNLQATIWEVHEVG	2.68 ± 0.21
NLMVHVFAAVMGINDLKC	1.41 ± 0.18
HYWNWYVEL	4.582 ± 0.037
